Measured values reported in US20250352662A1 (MERSANA THERAPEUTICS, published 2025).
“And” between values parts separate entries of the source, which are not always exact repeats. Identical values can stand only once.

B1: XMT-1535 Conjugate 8b-3, DAR 6.4 (antibody, human IgG1, kappa)
heavy: not shown
light: DIQMTQSPSSLSASVGDRVTITCSASQDIGNFLNWYQQKPGKTVKVLIYYTSSLYSGVPSRFSGSGSGTDYTLTISSLQPEDFATYYCQQYSKLPLTFGQGTKLELKRRTVAAPSVFIFPPSDEQLKSGTASVVCLLNNFYPREAKVQWKVDNALQSGNSQESVTEQDSKDSTYSLSSTLTLSKADYEKHKVYACEVTHQGLSSPVTKSFNRGEC
modifications: STING agonist linker-drug on cysteine thiols of the reduced antibody, positions not given; STING agonist linker-drug (Compound 7) joined through maleimide to cysteine thiols of the TCEP-reduced antibody, positions not given; DAR 6.4 per antibody
B2: XMT-1535 (antibody, human IgG1, kappa)
heavy: not shown
light: B1 light
notes: Unconjugated antibody, IgG1; also called anti-NaPi2b antibody; NaPi2b mAb
B3: XMT-1535 mIgG2a (antibody, V domains shown)
VH: QVQLVQSGAEVVKPGASVKMSCKASGYTFTGYNIHWVKQAPGQGLEWIGAIYPGNGDTSYKQKFRGRATLTADTSTSTVYMELSSLRSEDSAVYYCARGETARATFAYWGQGTLVTVSSG
VL: DIQMTQSPSSLSASVGDRVTITCSASQDIGNFLNWYQQKPGKTVKVLIYYTSSLYSGVPSRFSGSGSGTDYTLTISSLQPEDFATYYCQQYSKLPLTFGQGTKLELKR
notes: Unconjugated; variable domains are those of XMT-1535 by name only; also called XMT-1535 hIgG1-mIgG2a
B4: XMT-1535 mIgG2a Conjugate 32d, DAR 8.8 (antibody, V domains shown)
VH: B3 VH
VL: B3 VL
notes: elsewhere called chimeric hIgG1-mIgG2a; the variable domains are those of XMT-1535 by name only

Biological target: T1, human NaPi2b on OVCAR3 human ovarian cancer cells (human, UniProt O95436 1-690)
T1 construct: also called SLC34A2; sodium-dependent phosphate transport protein 2B
T1 sequence: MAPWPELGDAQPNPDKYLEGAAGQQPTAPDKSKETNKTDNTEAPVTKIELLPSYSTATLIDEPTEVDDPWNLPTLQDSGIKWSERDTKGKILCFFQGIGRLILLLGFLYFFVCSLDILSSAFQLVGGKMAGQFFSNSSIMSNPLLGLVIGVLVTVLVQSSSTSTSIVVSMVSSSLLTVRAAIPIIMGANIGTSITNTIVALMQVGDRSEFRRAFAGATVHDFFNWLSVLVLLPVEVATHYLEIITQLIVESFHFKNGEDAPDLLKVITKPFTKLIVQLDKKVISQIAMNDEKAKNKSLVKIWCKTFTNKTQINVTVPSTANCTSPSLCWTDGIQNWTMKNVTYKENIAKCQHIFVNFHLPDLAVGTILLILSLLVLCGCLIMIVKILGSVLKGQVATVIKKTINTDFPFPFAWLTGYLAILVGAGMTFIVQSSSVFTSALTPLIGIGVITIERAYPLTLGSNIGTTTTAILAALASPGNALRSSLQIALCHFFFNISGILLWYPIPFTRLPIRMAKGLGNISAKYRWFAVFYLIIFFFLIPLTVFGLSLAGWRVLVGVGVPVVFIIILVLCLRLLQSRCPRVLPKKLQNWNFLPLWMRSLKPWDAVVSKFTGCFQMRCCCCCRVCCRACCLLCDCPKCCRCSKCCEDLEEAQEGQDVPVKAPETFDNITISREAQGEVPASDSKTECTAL
Test: flow cytometry on OVCAR3 cells, 1 h on ice, goat anti-human IgG-Alexa-647 detection, MFI; mean EC50
Method: OVCAR3 cells were grown to ˜80-95% confluency in RPMI 1640 medium supplemented with FBS (20%) and penicillin/streptomycin (1%). Cells were harvested and added to wells of a 96-well U bottom plate (50,000/well). The cells were pelleted (300×g, 5 minutes) and resuspended in solutions of test articles as indicated in Table 18 at concentrations ranging between 0.01 nM and 300 nM and incubated on ice for 1 hour.

| Binder | EC50 |
| --- | --- |
| B1 | 8.13 nM |
| B2 | 4.29 nM and 3.74 nM |
| B3 | 4.13 nM |
| B4 | 2.99 nM |
